Assay results from PMC11284791, “Ribosome External Electric Field Regulates Metabolic Enzyme Activity: The RAMBO Effect” (The Journal of Physical Chemistry. B, 2024).

Molecular target: the molecule itself
Experiment: cross-linking; His-TPI alone with 2 mM BS(PEG)5; 10 mM sodium phosphate pH 7.5, 100 mM NaCl, 10 mM MgCl2, RT, 30 min; SDS-PAGE

B1: C-terminal His-tagged triosephosphate isomerase from G. gallus (enzyme, UniProt P00940 1-248, looked up)
chain: MAPRKFFVGGNWKMNGDKKSLGELIHTLNGAKLSADTEVVCGAPSIYLDFARQKLDAKIGVAAQNCYKVPKGAFTGEISPAMIKDIGAAWVILGHSERRHVFGESDELIGQKVAHALAEGLGVIACIGEKLDEREAGITEKVVFEQTKAIADNVKDWSKVVLAYEPVWAIGTGKTATPQQAQEVHEKLRGWLKSHVSDAVAQSTRIIYGGSVTGGNCKELASQHDVDGFLVGGASLKPEFVDIINAKH
notes: Triosephosphate isomerase, G. gallus, 248 residues, as m1, with a C-terminal His tag; also called His-TPI; His-tagged TPI; source: E. coli BL21 (DE3), pET-21a(+)-His-TPI, purified (Ni-NTA); not shown: His tag, C-terminal, kept
**Q.** B1 was tested. Which “stoichiometry N” value did it give?
**A.** 2
